Source: article PMC5128727, “Metalloprotease SPRTN/DVC1 Orchestrates Replication-Coupled DNA-Protein Crosslink Repair”

Target: T1, SPRTN WT (human, UniProt Q9H040 1-489)
T1 sequence: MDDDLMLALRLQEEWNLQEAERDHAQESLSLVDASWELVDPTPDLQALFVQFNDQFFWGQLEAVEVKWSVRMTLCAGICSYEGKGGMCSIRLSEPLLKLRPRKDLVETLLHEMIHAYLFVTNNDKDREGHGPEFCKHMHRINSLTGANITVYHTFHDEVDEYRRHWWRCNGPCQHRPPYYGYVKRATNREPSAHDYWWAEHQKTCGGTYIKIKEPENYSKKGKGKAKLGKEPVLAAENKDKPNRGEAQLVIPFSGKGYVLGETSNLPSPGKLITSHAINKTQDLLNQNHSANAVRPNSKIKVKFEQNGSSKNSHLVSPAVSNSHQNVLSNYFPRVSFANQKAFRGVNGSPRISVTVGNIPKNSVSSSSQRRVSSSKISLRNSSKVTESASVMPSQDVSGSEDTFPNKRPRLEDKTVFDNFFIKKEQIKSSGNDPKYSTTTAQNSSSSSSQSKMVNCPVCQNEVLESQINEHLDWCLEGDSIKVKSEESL
Experiment: fluorescence polarization; affinity similar to dsDNA; Probe annealing buffer: 10 mM HEPES pH 7.5, 50 mM NaCl; FP assay buffer and temperature not in the material
Settings: protein: recombinant; tags: His-ZB tag cleaved by TEV; label: FITC (position not in material); single strand

B1: ssDNA (OD1) (ssDNA)
DNA: ATCGATAGTCGGATCCTCTAGACAGCTCCATGTAGCAAGGCACTGGTAGAATTCGGCAGCGTC
  binding result: binds
